Common to all, as to assay: fluorescence polarization
On the technique in general: Fluorescence polarisation rises when a labelled molecule tumbles more slowly, as on binding a larger partner.

Series [1] deals with CLIP-G (CLIP-tag-GCN4 bZIP fusion) (UniProt P03069). To be noted: no added NaCl; amino-C6-T (second T of TTTT loop); 40 mM Tris-HCl, 20 mM acetic acid, 12.5 mM MgCl2, 1 mM DTT, 1 uM ZnCl2, 100 nM calf thymus DNA, 0.02% Tween 20, pH 8.0, 25 C, with or without 200 mM NaCl.
Series [2] has as its target ZF-CLIP (zif268-CLIP-tag fusion) (UniProt P08046). As to conditions: amino-C6-T (second T of TTTT loop), 40 mM Tris-HCl, 20 mM acetic acid, 12.5 mM MgCl2, 1 mM DTT, 1 uM ZnCl2, 100 nM calf thymus DNA, 0.02% Tween 20, pH 8.0, 25 C, with or without 200 mM NaCl.
Series [3] concerns AZ-CLIP (AZP4-CLIP-tag fusion) (designed). As to conditions: no added NaCl; amino-C6-T (second T of TTTT loop); 40 mM Tris-HCl, 20 mM acetic acid, 12.5 mM MgCl2, 1 mM DTT, 1 uM ZnCl2, 100 nM calf thymus DNA, 0.02% Tween 20, pH 8.0, 25 C, with or without 200 mM NaCl.

ZF-CLIP (zif268-CLIP-tag fusion), sequence (P08046 other isoform, or with tags, fused parts or gaps): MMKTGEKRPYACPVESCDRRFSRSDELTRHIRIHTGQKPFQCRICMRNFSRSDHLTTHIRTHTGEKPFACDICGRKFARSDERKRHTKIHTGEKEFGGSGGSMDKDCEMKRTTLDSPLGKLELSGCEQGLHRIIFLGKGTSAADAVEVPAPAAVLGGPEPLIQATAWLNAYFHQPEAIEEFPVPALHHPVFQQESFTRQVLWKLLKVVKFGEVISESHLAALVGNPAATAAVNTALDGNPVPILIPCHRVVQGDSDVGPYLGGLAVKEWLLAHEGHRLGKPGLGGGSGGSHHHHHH

Consider “CGTTCATGACTCATGAGTTTTCTCATGAGTCATGAAC [A488-ODN-AP]”, for which the Kd (usually the constant that tells how readily two partners part at equilibrium) is 5.1 nM in series [1] and above 1000 nM in series [2] (no added NaCl).
Turning to “CGCGACGCCCACGCGCGTTTTCGCGCGTGGGCGTCGC [A488-ODN-ZF]”, the Kd in series [3] is above 1000 nM; in series [1], above 1000 nM; in series [2], 56 nM; in series [2] (no added NaCl), 8.1 nM.
As to “CGCGATGCCACGTAGCGTTTTCGCTACGTGGCATCGC [A488-ODN-AZ]”, the dissociation constant Kd was 74 nM in series [3], above 1000 nM in series [1] and above 1000 nM in series [2] (no added NaCl).

The values are drawn from publication PMC7006624.
